spine/shaft ratio of GluA1-mCh-SspB fluorescence, dark, spine/shaft ratio of GluA1-mCh-SspB fluorescence, light and Kd data for 1 substance are collected here from PMC5332220.

The target of assay [1] is SspB_micro (UniProt P45206).
Assay [2] has as its target SspB_milli (UniProt P45206).
The target of assay [3] is SspB_nano (UniProt P45206).
For assay [4], the target named is SspB_micro (UniProt P45206). Put plainly: fluorescence polarisation. For orientation: Fluorescence polarisation rises when a labelled molecule tumbles more slowly, as on binding a larger partner.
The target in assay [5] is SspB_milli (UniProt P45206). Kind of assay: fluorescence polarisation.
Assay [6] has as its target SspB_nano (UniProt P45206). Kind of assay: fluorescence polarisation.
Assay [7] addresses SspB_micro (UniProt P45206). Kind of assay: fluorescence polarisation. This is another data set of the same source.
The target in assay [8] is SspB_milli (UniProt P45206). Put plainly: fluorescence polarisation. This is another data set of the same source.
Assay [9] addresses SspB_nano (UniProt P45206). Kind of assay: fluorescence polarisation. This is another data set of the same source.

Read-outs that look alike come from different tables or passages of the source.

“sLID (slow Light Inducible Dimer) (designed binder)”: the figures for the spine/shaft ratio of GluA1-mCh-SspB fluorescence, dark in [1], in [2] and in assay [3] were 1.5, 1.5 and 2.8, respectively. Further, the results for the spine/shaft ratio of GluA1-mCh-SspB fluorescence, light in [1], in assay [2] and in [3] were 1.8, 2.4 and 2.9, respectively. Further, the Kd turned out to be 2500 nM in assay [4]; 125000 nM in [5]; 310 nM in [6]; 110 nM in [7]; 3000 nM in assay [8]; 7 nM in assay [9].

As usually defined, the Kd is the free concentration of one partner at which half of the binding sites on the other are occupied at equilibrium, for simple one-to-one binding. Low values mean a tighter complex, high ones a looser complex.
